Data as given in the supplement of paper PMC9170038.

How the values were obtained:
MS2 coat protein [1] = test: apparent KD of MS2 coat protein; higher = weaker reporter binding; details: Eterna round: R101
Protocol: (§1)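 RNA-MaP: designed FMN/MS2 RNA switches (84 nt design region) are transcribed on-chip within common flanks and titrated with SNAP-549-labelled MS2 coat protein (about 1-3000 nM) in 100 mM Tris pH 7.5, 80 mM KCl, 4 mM MgCl2, without or with 200 uM FMN. Median apparent KD per design; activation ratio = KD,OFF / KD,ON.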

MS2 coat protein [2] = test: apparent KD of MS2 coat protein; designed switch direction (-1 OFF switch, 1 ON switch): -1; higher = weaker reporter binding; details: Eterna round: R98
Protocol: as §1

MS2 coat protein [3] = test: apparent KD of MS2 coat protein; designed switch direction (-1 OFF switch, 1 ON switch): 1; higher = weaker reporter binding; details: Eterna round: R98
Protocol: as §1

| Sequence | apparent KD of MS2 coat protein (MS2 coat protein [1]; input ligand: FMN 200 uM) [nM] | apparent KD of MS2 coat protein (MS2 coat protein [1]; input ligand: none) [nM] | apparent KD of MS2 coat protein (MS2 coat protein [2]; input ligand: FMN 200 uM) [nM] | apparent KD of MS2 coat protein (MS2 coat protein [2]; input ligand: none) [nM] | also measured |
| --- | --- | --- | --- | --- | --- |
| AAAAAUUCUUAAGGAUAUCAGUGGCAAAGCCACUGAGAAGGUGAGGAUCACCCACCUACGUGACGCUGGAAACAGCGUCACGAA [#SharedSequence ExNG1 - 29] (puzzle (switch architecture): Exclusion NG 1) | 18.8 | 16.6 | – | – | – |
| AAUAAUUCUUAAGGAUAUGACUCCGAAACGGAGUCAGAAGGUGAGGAUCACCCACCUAGCUCAGCGUCGAAAGACGCUGAGCAA [#SharedSequence ExNG1 - 31] (puzzle (switch architecture): Exclusion NG 1) | 12.7 | 10.5 | – | – | – |
| AGAAACUACGAGAAGGACAUGUGGUCCUUCAAAACCAUGAGGAUCACCCAUGUAGGAUAUCGUAGUUUCAGGAUCGUGAGAUCA [salish99_ISLExNG1_023 #HINGE] (puzzle (switch architecture): Inverted Small Loop Exclusion NG 1) | 12.1 | 268 | – | – | – |
| AGGACAGGCAGAGCGCAACGGCGUACAUGAGGAUCACCCAUGUAGGAUAUACUACACAAAGUGUAGUAGAAGGACAUGCGACGC [Ex NG2 #88] | – | – | 45.6 | 16.1 | – |
| AUAUAUAUUUAGAAGGACAUGAGGAUCACCCAUGUCGCCGGGCCCGGGAAACCGGGCCCGGCCAUGUAGGAUAUAGAUAUAUAU [#This is a good prank 13] (puzzle (switch architecture): Inverted Exclusion NG 2) | 9.05 | 6.41 | – | – | – |
| AUCAGCUCGUCAGGAUAUACGUCACUGCUUCGGCAGUGUGGUAAGAUCACAUGAGGAUCACCCAUGUAGAAGGGACGAGCUGAU [#EX_NG2_M81 #GC_VS_GU_SWITCHING] (puzzle (switch architecture): Exclusion NG 2) | 258 | 13.4 | – | – | – |
| AUGACAGGCAGAGCGCAACGGCGUACAUGAGGAUCACCCAUGUAGGAUAUACUACACAAAGUGUAGUAGAAGGACAUGCGACGC [Ex NG2 #87] | – | – | 34.4 | 23.2 | – |
| AUGACAGGCAGAGCGCAACGGCGUACAUGAGGAUCACCCAUGUAGGAUAUACUACACAAAGUGUAGUAGAAGGACAUGCGACGG [Ex NG2 #89] | – | – | 69 | 35.8 | – |
| AUGGAUAUCACAGGAUAUGAUAUGGAUACCAUAUCAGAAGGGUGACCCAUCCUAUGUAAAUACAUGAGGAUCACCCAUGUGUCC [Sara'sguidence+#HughScoreProbStacks#11] (puzzle (switch architecture): Same State NG 1) | 340 | 640 | – | – | – |
| CCAUAAAAGAUCCAUUUUUACAACAUGAGGAUCACCCAUGUGCAGGAUAUCGUGAAAGUUAAAUACGAGAAGGGCAAGAACUGC [JR_ExcNG3_Sub050] | – | – | 104 | 105 | – |
| CCUUUAAAGAUCCAAAAUUACAACAUGAGGAUCACCCAUGUGCAGGAUAUCGUGCCAGUGAUGUACGAGAAGGGCAGACUCUGC [salish99_ExNG3_r2_015] | – | – | 95.2 | 105 | – |
| CGAAGUCCGUAGAAGGGUGACAUGAGGAUCACCCAUGUGCGAGCCGAUGGAGUCAGCGGCUCGCCACAGGAUAUACGGAGCACG [Isdiesrama] (puzzle (switch architecture): Inverted Same State NG 2) | 22.3 | 180 | – | – | – |
| CGAUAUAUGAAGGGCAAACGCCCACAUGAGGAUCACCCAUGUAGAAGGCGAUCCGCAACGCGGAUCGAGGAUAUAUAGUAUACA [#my 15th design] (puzzle (switch architecture): Inverted Exclusion NG 3) | 10.6 | 11.2 | – | – | – |
| CGCUAUAACAUGAGGAUCACCCAUGUAUACAUGGAAUUGACGUAGGAUAUGCAGUUGAUUAUAGUGCAGAAGGACGGUAUAGCG [JR #DistanceFar #Hairpin #Noisy #NP SSNG3 Sub069] (puzzle (switch architecture): Same State NG 3) | 37.3 | 101 | – | – | – |
| GCAGCUAAUGCAGGAUAUCAGCACGUGUAGUGCUGAGAAGGGCACAUGAGGAUCACCCAUGUGAUCAAUUAAUGUUAAUGCUGC [ExNG1 1 #C-Saturation] (puzzle (switch architecture): Exclusion NG 1) | 15.2 | 6.82 | – | – | – |
| GGAGACCUUACAGGAUAUGCUGGACUUUGUCCAGCAGAAGGGUGAAAACAUGAGGAUCACCCAUGUAUGGUCUCCAAAUUUAAU [jl-ssng1-3.02 #GU_VS_GC_SWITCHING] (puzzle (switch architecture): Same State NG 1) | 21.2 | 19.1 | – | – | – |
| GGGUACAUCGGAGGAUAUCAUGUAUAUACAUGAGGAUCACCCAUGUCGAUGGAGACAUCGGAGAUUGAGAAGGCCGAUGUACCG (puzzle (switch architecture): Same State NG 2) | 11.8 | 382 | – | – | – |
| GUAGCAUACCGAGGAUAUUCAUCCGGAUUACGGACAUGAGGAUCACCCAUGUGGCGAAAGCCUUGGGAGAAGGCGGAAUGCUAC [Xeinanis 75 33] | – | – | – | – | apparent KD of MS2 coat protein (MS2 coat protein [3]; input ligand: FMN 200 uM): 34.4 nM; apparent KD of MS2 coat protein (MS2 coat protein [3]; input ligand: none): 369 nM |
| GUCCCAGUCACAGGAUAUGGCUCCGUAAUGGAGCCAGAAGGGUGAUAUUCAGAAAACACACAUGAGGAUCACCCAUGUAAUAAA [Enindiinso] | – | – | – | – | apparent KD of MS2 coat protein (MS2 coat protein [3]; input ligand: FMN 200 uM): 188 nM; apparent KD of MS2 coat protein (MS2 coat protein [3]; input ligand: none): 774 nM |
| UAUAUAUAGGCAGGAUAUACAUGAAUAUAUAAUAUAAUAUAUAAUAUAACAUGAGGAUCACCCAUGUAGAAGGGCCAUAAUAUA [LRO031_Exclusion NG 2] | – | – | 109 | 48.6 | – |
| UAUAUAUAGGCAGGAUAUACAUGUAUAUAUAAUUUUUUAUAUAUUAUUACAUGAGGAUCACCCAUGUAGAAGGGCCUUAUUAUA [LRO039_Exclusion NG 2] | – | – | 62.8 | 46.9 | – |
| UAUAUAUGGUGAGGAUAUGCAGAGGAUCACCCUGUAGAAGGCAUCAGGGUAGAAGGUGCAAGGAUCACCUGUAAGGAUAUAUCC [pwkr2 ssNG1 DX.30] | – | – | – | – | apparent KD of MS2 coat protein (MS2 coat protein [3]; input ligand: FMN 200 uM): 587 nM; apparent KD of MS2 coat protein (MS2 coat protein [3]; input ligand: none): 1370 nM |
| UAUUAUAUAUAGAAGGACAUGAGGAUCACCCAUGUCGCCGGGCCCGGGAAACCGGGCCCGGCCAUGUAGGAUAUAUAUAUGGUA [#This is a good prank 8] (puzzle (switch architecture): Inverted Exclusion NG 2) | 6.2 | 6.38 | – | – | – |
| UAUUGCGCCGUAAAAUAACACAUGAGGAUCACCCAUGUGACACAGGAUAUAACCAGAUCAGAAAGUUAGAAGGGUGAAAACGGC [Edraed Mod 3 - Jieux - Same State NG3] | – | – | – | – | apparent KD of MS2 coat protein (MS2 coat protein [3]; input ligand: FMN 200 uM): 20.4 nM; apparent KD of MS2 coat protein (MS2 coat protein [3]; input ligand: none): 30.8 nM |
| UGAUCGCUUGGAGGAUAUCCAACUAUCCUAGUUGGAGAAGGCCAAGCUACAGAGCUAAGCUUGGAAGUCACUUCGGAUCAACAC [pwkr ssNG1 F9.4.1] | – | – | – | – | apparent KD of MS2 coat protein (MS2 coat protein [3]; input ligand: FMN 200 uM): 65.5 nM; apparent KD of MS2 coat protein (MS2 coat protein [3]; input ligand: none): 32.7 nM |
| UGUUGUUACGCAGGAUAUUGCCAACAGGCAGUAGGAUAUCCGAAAGGAGAAGGAUCGCCAACAGGCGAGAAGGGCGGGUUAACA [pwkr exNG2 2xF7 2FMN.10.2] | – | – | 194 | 706 | – |
